From publication doi:10.1101/2021.07.07.451439 come the findings set out here.

One assay has as its target TCEAL4 (UniProt Q96EI5). The experiment in a line: GFP-NanoTrap IP, blot of lower MW TCEAL4. The settings on record: reference: wild type GFP-USP7; sites S18.
In another assay the target is TRIM27 (UniProt P14373). The experiment in a line: GFP-NanoTrap IP of GFP-USP7, immunoblot. The settings on record: reference: wild type GFP-USP7; sites S18.

As for USP7 (from UniProt Q93009) S18A, the “binding against the reference” value in the assay with TCEAL4 and in the assay with TRIM27 was “stronger” throughout.
